Experimental data reported in patent US20250282887A1 (Amgen, published 2025).
Substitutions are numbered along the chain they refer to.

T1: human MAGEB17 (human, UniProt A8MXT2 1-336)
T1 construct: whole, on cells; FFPE cell pellets; also called MAGE-17
T1 sequence (looked up): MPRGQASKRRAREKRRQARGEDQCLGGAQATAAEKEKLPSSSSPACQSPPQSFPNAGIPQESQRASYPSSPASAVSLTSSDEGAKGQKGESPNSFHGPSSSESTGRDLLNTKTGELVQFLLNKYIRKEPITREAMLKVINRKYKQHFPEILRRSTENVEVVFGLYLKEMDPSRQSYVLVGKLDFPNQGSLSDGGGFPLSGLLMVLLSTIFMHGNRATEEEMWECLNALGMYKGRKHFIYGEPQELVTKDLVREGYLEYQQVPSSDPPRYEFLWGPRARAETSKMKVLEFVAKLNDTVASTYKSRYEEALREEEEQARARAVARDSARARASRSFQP

T2: human MAGEB4 (human, UniProt O15481 1-346)
T2 construct: whole, on cells
T2 sequence (looked up): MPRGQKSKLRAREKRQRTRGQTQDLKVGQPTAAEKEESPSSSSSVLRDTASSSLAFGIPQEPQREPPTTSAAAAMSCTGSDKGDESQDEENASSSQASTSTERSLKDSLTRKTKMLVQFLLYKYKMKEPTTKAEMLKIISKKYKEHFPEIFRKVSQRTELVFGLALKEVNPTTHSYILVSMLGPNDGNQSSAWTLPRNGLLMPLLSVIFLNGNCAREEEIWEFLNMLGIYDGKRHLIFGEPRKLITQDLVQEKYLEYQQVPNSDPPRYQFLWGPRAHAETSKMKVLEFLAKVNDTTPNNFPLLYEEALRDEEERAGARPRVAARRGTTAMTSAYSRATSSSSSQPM

T3: human MAGEA5 (human, UniProt P43359 1-124)
T3 construct: whole, on cells; FFPE cell pellets
T3 sequence (looked up): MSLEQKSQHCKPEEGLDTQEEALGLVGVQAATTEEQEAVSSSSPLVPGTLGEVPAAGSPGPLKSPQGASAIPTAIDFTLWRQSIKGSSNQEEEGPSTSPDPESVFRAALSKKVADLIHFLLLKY

B1: 1I14 (antibody, V domains shown)
VH: QSVEESGGRLVTPGTPLTLTCTISGFSLSSYAMSWVRQAPGKGLEWIGSIGGGGSAVYASWAKGRFTISKTSTTVDLRITSPTTEDTAMYFCGRGFYSIDLWGPGTLVTVSS
VL: DVVMTQTPASVEATVGGTVTIKCQSSQSVYDNNALAWYQQNAGQRPRLLIYGASTLASGVPSRFSASGSGTEFTLTISDLECADAATYYCQCTYYVSSYQNDFGGGTEVVVKG
notes: also called MAGE-B2 (1i14)
B2: 1C3 (antibody, V domains shown)
VH: QSLEESGGGLVQPEGSLTLTCTAFGVTLTNYYICWVRQAPGKGLEWVGCIDNANGRTYYASWAKGRFTISKTSSTTGTLQMTSLTAADTATYFCARSLATPLWGPGTLVTVSS
VL: DIVMTQTPSSVEAAVGGTVTIKCQASQNISSYLAWYQQKPGQPPKLLIYRASTLASGVPSRFKGSGSGTQFTLTISDLECADAATYYCQSYDDSRSSNFFYAFGGGTEVVVKG
notes: also called MAGE-B2 (IC3); anti-MAGEB2 antibody 1C3
B3: 4G17 (antibody, IgG1, V domains shown)
VH: B2 VH with F24S, T29S, V47I, A53V
VL: DIVMTQTPASVEAAVGGTVTIKCQASQNIDSYLAWYQQKPGQPPKLLIYRASTLASGVPSRFKGSGSGTEFTLTISDLECADAATYYCQSYDDSRSSSFFYGFGGGTEVVVK
notes: Rabbit monoclonal IgG1; Tested as supernatant and as small batch purified antibody; also called MAGE-B2 (4G17); anti-MAGEB2 antibody 4G17
B4: 1J15 (antibody, IgG1, V domains shown)
VH: B2 VH with V26F, T29N, V47I, G48A, G77V, A99S
VL: B3 VL with N28S, D30S, A34S, K63R, E70Q, R95S, S96D, S97N, S98N, K112R
notes: Rabbit monoclonal IgG1; Tested as supernatant and as small batch purified antibody; also called MAGE-B2 (IJ15); anti-MAGEB2 antibody 1J15

Target: T1, human MAGEB17
Test: IHC, FFPE CHO cells transfected with human MAGEB17
Experimental: (§1) FFPE samples were sectioned at 4 μm and mounted on positive charged glass slides. After mounting, paraffin sections were air-dried at room temperature. FFPE TMA samples were received as freshly sectioned and mounted on glass slides. The fully automated IHC assay was performed on a Discovery Ultra Stainer (Ventana Medical Systems, Tucson, AZ) using Ventana Anti-Rabbit HQ (cat #760-4815), Ventana Anti-HQ HRP (cat #760-4820), and Ventana Antibody Diluent with Casein (cat #760-219) (Ventana Medical Systems, Tucson, AZ). The slides were baked on the Discovery Ultra Stainer at 60° C. for 8 minutes, de-paraffinized with Ventana Discovery wash (cat #950-510) for 3 cycles (8 minutes each) at 69° C., and underwent cell conditioning (target retrieval) at 95° C. for 16 minutes (for cell arrays) or 32 minutes (tissues or TMAs) in CC1 buffer (cat #950-500). Following this, slides were incubated with Background Sniper (cat #BS966M, Biocare Medical, Pacheco, CA) in a Ventana Option Prep kit (cat #771-751) for 28 minutes, incubated with CM inhibitor (a part of the Ventana DAB kit cat #760-159) for 12 minutes, and incubated for 1 h at RT with MAGE-B2 antibody diluted with Ventana diluent with Casein in a Ventana Prep kit (cat #770-001) (working concentration at 0.1 μg/ml for cell pellet, or 1-5 ug/ml for tissues) or with a matched concentration of isotype control Rabbit IgG1 antibody. Following this, slides were incubated with the Ventana Anti-Rabbit HQ (cat #760-4815) for 28 minutes at RT, Ventana Anti-HQ HRP (cat #760-4820) for 28 minutes at RT, and signals detected with Ventana DAB chromogen kit (cat #760-159) for 5 minutes at RT. Slides were counterstained with Ventana Hematoxylin II (cat #5266726001) for 8 minutes and Ventana Bluing reagent (cat #526676900) for 4 minutes. Slides were coverslipped and digitized using an Aperio AT2 scanner (Leica Biosystems Inc, Buffalo Grove, IL).

Binding result, no binding (tested: 0.1 µg/ml):
B1
B2
B3
B4

Target: T2, human MAGEB4
Test: IHC, FFPE CHO cells transfected with human MAGEB4
Text: (§2) Negative control cells included parental Chinese hamster ovary (CHO) cells, CHO cells stably transfected with mCherry Vector Control (minus Myc/DDK tags), CHO cells stably transfected with mCherry-human DCAF4L2 (plus Myc/DDK tags). The cross-reactivity control cells included CHO cells transfected with mCherry Vector Control (plus Myc/DDK tags) with one of the human MAGE-B or MAGE-A family members (MAGEA1, MAGEA2, MAGEA3, MAGEA4, MAGEA5, MAGEA6, MAGEA8, MAGEA9, MAGEA11, MAGEA12, MAGEB1, MAGEB3, MAGEB4, MAGEB5, MAGEB6, MAGEB10, MAGEB16, MAGEB17, MAGEB18). Positive control cell lines included CHO cells transfected with mCherry Vector (plus Myc/DDK tags) with human MAGE-B2 or CHO cells transfected with mCherry Vector (open reading frame (ORF); minus Myc/DDK tags) with human MAGEB2, and thirteen human cancer cell lines with known endogenous RNA expression level of MAGEB2 (U266B1, T98G, KMM-1, U20S, CFPAC-1, SCaBER, UACC-257, CFPAC-1, VMRC-LCD, NCI-H1703, UM-UC-3, NCI-H1395, NCIH82).
as §1, with “antibody.” for “antibody. Following this, slides were incubated with the Ventana Anti-Rabbit HQ (cat #760-4815) for 28 minutes at RT, Ventana Anti-HQ HRP (cat #760-4820) for 28 minutes at RT, and signals detected with Ventana DAB chromogen kit (cat #760-159) for 5 minutes at RT. Slides were counterstained with Ventana Hematoxylin II (cat #5266726001) for 8 minutes and Ventana Bluing reagent (cat #526676900) for 4 minutes. Slides were coverslipped and digitized using an Aperio AT2 scanner (Leica Biosystems Inc, Buffalo Grove, IL).”

Binding result, no binding (tested: 0.1 µg/ml):
B1
B2
B3
B4

Target: T3, human MAGEA5
Test: IHC, FFPE CHO cells transfected with human MAGEA5
Text: as §2
as §1, with “antibody.” for “antibody. Following this, slides were incubated with the Ventana Anti-Rabbit HQ (cat #760-4815) for 28 minutes at RT, Ventana Anti-HQ HRP (cat #760-4820) for 28 minutes at RT, and signals detected with Ventana DAB chromogen kit (cat #760-159) for 5 minutes at RT. Slides were counterstained with Ventana Hematoxylin II (cat #5266726001) for 8 minutes and Ventana Bluing reagent (cat #526676900) for 4 minutes. Slides were coverslipped and digitized using an Aperio AT2 scanner (Leica Biosystems Inc, Buffalo Grove, IL).”

Binding result, no binding (tested: 0.1 µg/ml):
B1
B2
B3
B4
